Columns and labels:
Assay in all cases: Fc receptor binding, method not stated
[1] = target: CD32-R131 (FcγRIIa) (human) (UniProt P12318)
[2] = target: CD32-H131 (FcγRIIa) (human) (UniProt P12318)
CD64 (FcγRIa) (human) = CD64 (FcγRIa) (human) (UniProt P12314)
[3] = target: CD16-V158 (FcγRIIIa) (human) (UniProt P08637)
CD32B (FcγRIIb) (human) = CD32B (FcγRIIb) (human) (UniProt P31994)
CD32B (FcγRIIb) (human), sequence (P31994 43-217 limits assumed): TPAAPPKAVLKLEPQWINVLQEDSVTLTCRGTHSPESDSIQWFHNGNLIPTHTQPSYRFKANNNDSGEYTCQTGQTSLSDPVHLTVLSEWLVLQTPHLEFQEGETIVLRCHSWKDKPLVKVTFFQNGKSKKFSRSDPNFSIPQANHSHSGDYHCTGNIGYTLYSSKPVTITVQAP

CD32-R131 (FcγRIIa) (human), sequence (P12318 34-217 H167R limits assumed): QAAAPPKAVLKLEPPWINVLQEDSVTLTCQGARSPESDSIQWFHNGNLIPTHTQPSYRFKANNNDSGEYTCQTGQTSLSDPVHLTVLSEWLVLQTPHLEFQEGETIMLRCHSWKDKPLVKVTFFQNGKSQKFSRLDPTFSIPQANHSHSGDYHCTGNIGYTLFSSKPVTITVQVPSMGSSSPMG
CD64 (FcγRIa) (human), sequence (P12314 16-288 limits assumed): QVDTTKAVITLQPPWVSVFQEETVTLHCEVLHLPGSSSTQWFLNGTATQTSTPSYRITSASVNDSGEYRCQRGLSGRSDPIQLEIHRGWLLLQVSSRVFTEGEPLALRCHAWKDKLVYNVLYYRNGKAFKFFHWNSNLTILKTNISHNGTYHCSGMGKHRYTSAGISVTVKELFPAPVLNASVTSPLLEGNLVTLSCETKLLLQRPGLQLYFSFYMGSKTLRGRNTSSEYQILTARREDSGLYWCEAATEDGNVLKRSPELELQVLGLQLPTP
CD16-V158 (FcγRIIIa) (human), sequence (P08637 17-208 F176V limits assumed): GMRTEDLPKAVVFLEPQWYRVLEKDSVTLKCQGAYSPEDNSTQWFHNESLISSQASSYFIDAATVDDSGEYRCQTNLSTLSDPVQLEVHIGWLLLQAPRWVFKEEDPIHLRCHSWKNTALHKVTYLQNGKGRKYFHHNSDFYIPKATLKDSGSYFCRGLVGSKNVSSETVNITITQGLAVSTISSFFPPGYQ
CD32-H131 (FcγRIIa) (human), sequence (P12318 34-217 limits assumed): as the sequence (P12318 34-217 H167R limits assumed) above, with R134H counted along it

Row | Substance | Kd [1] | Kd [2] | Kd (CD64 (FcγRIa) (human)) | Kd [3] | Kd (CD32B (FcγRIIb) (human))
1 | IgG1f antibody (human IgG1, 214R/356E/358M allotype) | 960 nM | 530 nM | 0.2 nM | 97 nM | –
2 | non-fucosylated IgG1f antibody (human IgG1, 214R/356E/358M allotype) | 710 nM | 560 nM | 0.1 nM | 11 nM | –
3 | GASDALIE modified IgG1f antibody (human IgG1, 214R/356E/358M allotype; G236A, S239D, A330L and I332E) | 100 nM | – | 0.6 nM | – | 890 nM
